Measurements from paper PMC3830444 (BMC Biochemistry, 2013).
Ends that are not written are not given here.

Target: human α-thrombin (human, UniProt P00734 364-622)
Assay: ELISA
Conditions: both partners purified

B1: H6HV3_(54-66)G6 synthetic peptide (peptide)
chain: Ac-GDFEPIPEDAYDE
modifications: not fully specified (C-terminus)
  IC50: 1400 nM

B2: H6HV3_(54-66) synthetic peptide (peptide)
chain: Ac-GDFEPIPEDAYDE
  IC50: 740 nM
